Measured values reported in publication PMC8497506, “Modular fluorescent nanoparticle DNA probes for detection of peptides and proteins”.

Columns and labels:
[1] = target: T1, HHH peptide (synthetic); assay: plate binding assay (ELONA); 10 mM HEPES, 1.2 mM NaCl (so in the source), 5 mM MgCl2, 5 mM KCl, pH 7.4, 0.1% Tween-20, 1% sheared salmon sperm DNA, 300 uM dextran sulfate; 60 min; temperature not stated; conditions: tags: N-terminal Cys-biotin-PEG2; label: fluorescent FluoSphere; 24 bp duplex of strand 1 5' end with handle; rest single-stranded aptamer
T1 chain: GHHHG

[2] = target: T1, HHH peptide; assay: plate binding assay (ELONA); EC50, FluoSphere probe; 10 mM HEPES, 1.2 mM NaCl (so in the source), 5 mM MgCl2, 5 mM KCl, pH 7.4, 0.1% Tween-20, 1% sheared salmon sperm DNA, 300 uM dextran sulfate; 60 min; temperature not stated; conditions: tags: N-terminal Cys-biotin-PEG2; label: fluorescent FluoSphere; 24 bp duplex of strand 1 5' end with handle; rest single-stranded aptamer
[3] = target: T1, HHH peptide; assay: plate binding assay (ELONA); EC50, streptavidin conjugate; 10 mM HEPES, 1.2 mM NaCl (so in the source), 5 mM MgCl2, 5 mM KCl, pH 7.4, 0.1% Tween-20, 1% sheared salmon sperm DNA, 300 uM dextran sulfate; 60 min; temperature not stated; conditions: tags: N-terminal Cys-biotin-PEG2; label: streptavidin conjugate
[4] = target: T1, HHH peptide; assay: plate binding assay (ELONA); EC50, Streptavidin SureLight APC; 10 mM HEPES, 1.2 mM NaCl (so in the source), 5 mM MgCl2, 5 mM KCl, pH 7.4, 0.1% Tween-20, 1% sheared salmon sperm DNA, 300 uM dextran sulfate; 60 min; temperature not stated; conditions: tags: N-terminal Cys-biotin-PEG2; label: streptavidin conjugates or HRP
[5] = target: T1, HHH peptide; assay: plate binding assay (ELONA); EC50, Streptavidin APC; 10 mM HEPES, 1.2 mM NaCl (so in the source), 5 mM MgCl2, 5 mM KCl, pH 7.4, 0.1% Tween-20, 1% sheared salmon sperm DNA, 300 uM dextran sulfate; 60 min; temperature not stated; conditions: tags: N-terminal Cys-biotin-PEG2; label: streptavidin conjugates or HRP
[6] = target: T1, HHH peptide; assay: plate binding assay (ELONA); EC50, Streptavidin AlexaFluor 647; 10 mM HEPES, 1.2 mM NaCl (so in the source), 5 mM MgCl2, 5 mM KCl, pH 7.4, 0.1% Tween-20, 1% sheared salmon sperm DNA, 300 uM dextran sulfate; 60 min; temperature not stated; conditions: tags: N-terminal Cys-biotin-PEG2; label: streptavidin conjugates or HRP
[7] = target: T1, HHH peptide; assay: plate binding assay (ELONA); streptavidin conjugate; Fig. S4B legend calls it EC50; 10 mM HEPES, 1.2 mM NaCl (so in the source), 5 mM MgCl2, 5 mM KCl, pH 7.4, 0.1% Tween-20, 1% sheared salmon sperm DNA, 300 uM dextran sulfate; 60 min; temperature not stated; conditions: tags: N-terminal Cys-biotin-PEG2; label: streptavidin conjugates or HRP
[8] = target: Myoglobin (UniProt P68082 2-154); assay: plate binding assay (ELONA); off-target; 10 mM HEPES, 1.2 mM NaCl (so in the source), 5 mM MgCl2, 5 mM KCl, pH 7.4, 0.1% Tween-20, 1% sheared salmon sperm DNA, 300 uM dextran sulfate; 60 min; temperature not stated; conditions: protein: commercial; label: fluorescent FluoSphere; 24 bp duplex of strand 1 5' end with handle; rest single-stranded aptamer
[9] = target: VEGF (UniProt P15692-4 27-191); assay: plate binding assay (ELONA); EC50, FluoSphere probe; 10 mM HEPES, 1.2 mM NaCl (so in the source), 5 mM MgCl2, 5 mM KCl, pH 7.4, 0.1% Tween-20, 1% sheared salmon sperm DNA, 300 uM dextran sulfate; 60 min; temperature not stated; conditions: protein: commercial; chain copies: 2; label: fluorescent FluoSphere; 24 bp duplex of strand 1 5' end with handle; rest single-stranded aptamer
[10] = target: T2, Her2-his (UniProt P04626 23-652); assay: plate binding assay (ELONA); EC50, FluoSphere probe, avidity; 10 mM HEPES, 1.2 mM NaCl (so in the source), 5 mM MgCl2, 5 mM KCl, pH 7.4, 0.1% Tween-20, 1% sheared salmon sperm DNA, 300 uM dextran sulfate; 60 min; temperature not stated; conditions: protein: commercial; tags: His tag; label: fluorescent FluoSphere; 24 bp duplex of strand 1 5' end with handle; rest single-stranded aptamer
[11] = target: T2, Her2-his; assay: plate binding assay (ELONA); EC50, Qdot core; 10 mM HEPES, 1.2 mM NaCl (so in the source), 5 mM MgCl2, 5 mM KCl, pH 7.4, 0.1% Tween-20, 1% sheared salmon sperm DNA, 300 uM dextran sulfate; 60 min; temperature not stated; conditions: protein: commercial; tags: His tag; label: Qdot 655; 24 bp duplex of strand 1 5' end with handle; rest single-stranded aptamer
[12] = target: T2, Her2-his; assay: plate binding assay (ELONA); about twofold lower than pre-annealed probe; 10 mM HEPES, 1.2 mM NaCl (so in the source), 5 mM MgCl2, 5 mM KCl, pH 7.4, 0.1% Tween-20, 1% sheared salmon sperm DNA, 300 uM dextran sulfate; 60 min; temperature not stated; conditions: protein: commercial; tags: His tag; label: fluorescent FluoSphere

B1: Her2 aptamer annealed to DBCO-P7 handle on nanoparticle (mixed)
DNA 1: CAAGCAGAAGACGGCATACGAGATTCTAAAAGGATTCTTCCCAAGGGGATCCAATTCAAACAGCGTGTAGATCTCGGTGGTCGCCGTATCATT
DNA 2: ATCTCGTATGCCGTCTTCTGCTTG
modifications: handle 3' iSp9-DBCO coupled to azide-PEG
[1]
  binding result: no binding

B2: H3T annealed to DBCO-P7 handle on nanoparticle (mixed)
DNA 1: CAAGCAGAAGACGGCATACGAGATGTTTGCCGGTGGGCAGGTTTAGGGTCTGCTCGGGATTGCGGAGGAACATGCGTCGCAAACGTGTAGATCTCGGTGGTCGCCGTATCATT
DNA 2: ATCTCGTATGCCGTCTTCTGCTTG
modifications: handle 3' iSp9-DBCO coupled to azide-PEG
[2]
  apparent K (half saturation): 12 nM

B3: Biotin-H3T (ssDNA)
DNA: GTTTGCCGGTGGGCAGGTTTAGGGTCTGCTCGGGATTGCGGAGGAACATGCGTCGCAAAC
modifications: 5' biotin
[3]
  apparent K (half saturation): 30 nM

B4: Biotin-B1 (ssDNA)
DNA: CATGCTTCCCCAGGGAGATGGTTTGCCGGTGGGCAGGTTTAGGGTCTGCTCGGGATTGCGGAGGAACATGCGTCGCAAAC
modifications: 5' biotin
[4]
  apparent K (half saturation): 9.9 nM
[5]
  apparent K (half saturation): 28 nM
[6]
  apparent K (half saturation): 43 nM
[7]
  Kd: 55 nM

B5: VEGF aptamer annealed to DBCO-P7 handle on nanoparticle (mixed)
DNA 1: CAAGCAGAAGACGGCATACGAGATCCCGTCTTCCAGACAAGAGTGCAGGGGTGTAGATCTCGGTGGTCGCCGTATCATT
DNA 2: ATCTCGTATGCCGTCTTCTGCTTG
modifications: handle 3' iSp9-DBCO coupled to azide-PEG
[8]
  binding result: no binding
[9]
  apparent K (half saturation): 5.5 nM

B6: P7-B1 annealed to DBCO-P7 handle on nanoparticle (mixed)
DNA 1: CAAGCAGAAGACGGCATACGAGATCATGCTTCCCCAGGGAGATGGTTTGCCGGTGGGCAGGTTTAGGGTCTGCTCGGGATTGCGGAGGAACATGCGTCGCAAACGTGTAGATCTCGGTGGTCGCCGTATCATT
DNA 2: ATCTCGTATGCCGTCTTCTGCTTG
modifications: handle 3' iSp9-DBCO coupled to azide-PEG
[2]
  apparent K (half saturation): 2.7 nM
[10]
  apparent K (half saturation): 5.2 nM

B7: P7-B1 annealed to DBCO-P7 handle on Qdot 655 (mixed)
DNA 1: B6 DNA 1
DNA 2: ATCTCGTATGCCGTCTTCTGCTTG
modifications: handle 3' iSp9-DBCO coupled to azide-PEG
[11]
  apparent K (half saturation): 55 nM

B8: DBCO-B1 directly conjugated to nanoparticle (ssDNA)
DNA: B6 DNA 1
modifications: 5' DBCO-C7 coupled to azide-PEG
[12]
  binding result: binds
